# According to article PMC6562446 (2019):
# B1: Pseudomonas fluorescens lectin (PFL) (natural protein)
# chain: MSKYAVANQWGGSSAPWHPGGTWVLGARDNQNVVAIEIKSGDGGKSFTGTMTYAGEGPIGFKAQRTGQNQYNVENQWGGNDAPWHPGGKWVIGGRDNQNVIALSVTSSDGGKNLSGTNTYANEGPIGFRGQIE
# Tests used:
# Assay in all cases: SPR
# Recombinant B7-H4 [1] = biological target: T1, Recombinant B7-H4 (UniProt Q7Z7D3 25-259, N-glycans, including high mannose glycans through which PFL binds)
# T1 chain: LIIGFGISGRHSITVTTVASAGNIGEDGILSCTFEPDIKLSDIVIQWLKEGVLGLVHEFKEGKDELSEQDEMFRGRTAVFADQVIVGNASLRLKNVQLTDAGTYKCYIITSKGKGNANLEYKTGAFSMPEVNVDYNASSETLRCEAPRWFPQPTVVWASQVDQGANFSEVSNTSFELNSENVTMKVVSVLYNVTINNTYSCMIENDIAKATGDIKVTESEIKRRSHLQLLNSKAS
# [2] = biological target: T2, Recombinant integrin αvβ3 (UniProt P06756 31-1048; P05106 27-718)
# T2 chain 1: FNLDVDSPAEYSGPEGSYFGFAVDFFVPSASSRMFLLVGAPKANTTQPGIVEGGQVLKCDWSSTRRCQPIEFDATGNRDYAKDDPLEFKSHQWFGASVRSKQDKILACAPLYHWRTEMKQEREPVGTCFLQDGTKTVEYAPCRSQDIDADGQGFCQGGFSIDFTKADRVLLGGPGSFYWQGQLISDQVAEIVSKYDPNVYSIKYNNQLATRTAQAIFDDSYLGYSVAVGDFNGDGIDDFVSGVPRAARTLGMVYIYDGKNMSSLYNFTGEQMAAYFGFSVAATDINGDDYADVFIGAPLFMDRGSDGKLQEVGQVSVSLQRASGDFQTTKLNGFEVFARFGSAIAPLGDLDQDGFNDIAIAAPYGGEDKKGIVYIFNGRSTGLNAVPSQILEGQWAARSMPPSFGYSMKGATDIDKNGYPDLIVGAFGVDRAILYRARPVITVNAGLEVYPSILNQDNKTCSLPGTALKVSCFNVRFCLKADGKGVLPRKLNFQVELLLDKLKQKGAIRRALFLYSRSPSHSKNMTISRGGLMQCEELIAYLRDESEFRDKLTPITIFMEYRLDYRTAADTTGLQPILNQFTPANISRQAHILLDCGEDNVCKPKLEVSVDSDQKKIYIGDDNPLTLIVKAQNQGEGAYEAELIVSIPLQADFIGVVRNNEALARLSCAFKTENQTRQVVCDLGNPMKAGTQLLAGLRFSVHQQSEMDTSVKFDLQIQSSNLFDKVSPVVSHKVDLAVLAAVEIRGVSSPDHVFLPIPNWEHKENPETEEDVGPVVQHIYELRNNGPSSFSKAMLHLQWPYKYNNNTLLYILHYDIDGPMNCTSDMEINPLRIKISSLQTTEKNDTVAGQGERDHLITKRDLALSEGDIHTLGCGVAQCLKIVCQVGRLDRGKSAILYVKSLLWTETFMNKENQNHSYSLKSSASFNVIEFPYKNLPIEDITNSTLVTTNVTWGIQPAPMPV
# T2 chain 2: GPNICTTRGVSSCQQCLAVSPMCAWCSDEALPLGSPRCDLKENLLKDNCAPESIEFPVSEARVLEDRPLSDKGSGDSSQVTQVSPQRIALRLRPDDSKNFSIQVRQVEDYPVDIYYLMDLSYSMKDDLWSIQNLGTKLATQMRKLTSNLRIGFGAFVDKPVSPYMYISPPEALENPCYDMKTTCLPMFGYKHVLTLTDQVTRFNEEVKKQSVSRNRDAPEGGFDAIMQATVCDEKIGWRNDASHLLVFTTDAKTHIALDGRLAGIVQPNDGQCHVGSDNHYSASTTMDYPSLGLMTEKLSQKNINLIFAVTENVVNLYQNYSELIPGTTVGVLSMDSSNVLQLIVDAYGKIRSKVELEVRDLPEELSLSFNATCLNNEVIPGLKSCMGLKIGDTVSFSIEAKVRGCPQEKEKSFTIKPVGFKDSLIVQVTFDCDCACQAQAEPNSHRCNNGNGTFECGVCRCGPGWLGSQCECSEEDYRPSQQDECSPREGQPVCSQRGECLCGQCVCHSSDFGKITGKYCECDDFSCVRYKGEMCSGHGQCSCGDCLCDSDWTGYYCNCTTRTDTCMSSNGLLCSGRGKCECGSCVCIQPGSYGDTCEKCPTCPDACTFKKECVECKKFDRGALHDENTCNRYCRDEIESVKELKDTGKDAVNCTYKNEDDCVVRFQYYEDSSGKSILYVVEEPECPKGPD
# Recombinant B7-H4 [3] = biological target: T1, Recombinant B7-H4
# [4] = biological target: T2, Recombinant integrin αvβ3
binder,measurement,setting,value
B1,koff,Recombinant B7-H4 [1],0.00043 s⁻¹
same,koff,[2],8.69e-06 s⁻¹
same,Kd,Recombinant B7-H4 [3],5.35 nM
same,Kd,[4],1.65 nM
